Where “and” joins values, the source holds several entries; their conditions need not be identical. Equal values may be shown once.

Data set [1] concerns the molecule itself. In words: SEC-MALS; enzymatically active myo-IDH, 0.5-2 mg/ml, Agilent Biosec-3 column, 0.3 ml/min, 50 mM phosphate buffer pH 7.0, 300 mM NaCl, 15°C; miniDAWN light scattering, refractive index and UV detectors.
Substrate in data set [2]: O[C@H]1[C@H](O)[C@@H](O)[C@H](O)[C@@H](O)[C@H]1O
In words: purified protein. The note with it: 1 mM NAD+, 10 mM sodium pyrophosphate pH 9, room temperature; pH 9.0. In kind it is biochemical, Entamoeba histolytica.

Substrate in data set [3]: NC(=O)c1ccc[n+]([C@@H]2O[C@H](COP(=O)(O)OP(=O)(O)OC[C@H]3O[C@@H](n4cnc5c(N)ncnc54)[C@H](OP(=O)(O)O)[C@@H]3O)[C@@H](O)[C@H]2O)c1
Description: purified protein. Format: biochemical, Entamoeba histolytica. The note with it: 12.5 mM myo-inositol, 10 mM sodium pyrophosphate pH 9, room temperature; pH 9.0; varied: cofactor.

Substrate in data set [4]: O=C1[C@@H](O)[C@H](O)[C@@H](O)[C@H](O)[C@H]1O
Description: purified protein. Format: biochemical, Entamoeba histolytica. Conditions: reverse reaction, NADH as co-substrate (concentration not stated).

Substrate in data set [5]: O[C@H]1[C@H](O)[C@@H](O)[C@H](O)[C@@H](O)[C@@H]1O
In words: purified protein. Conditions: 1 mM NAD+, 10 mM sodium pyrophosphate pH 9, room temperature; pH 9.0. Format: biochemical, Entamoeba histolytica.

Substrate in data set [6]: NC(=O)C1=CN([C@@H]2O[C@H](COP(=O)(O)OP(=O)(O)OC[C@H]3O[C@@H](n4cnc5c(N)ncnc54)[C@H](O)[C@@H]3O)[C@@H](O)[C@H]2O)C=CC1
In words: purified protein. In kind it is biochemical, Entamoeba histolytica. The note with it: reverse reaction, keto-2-inositol as presumed co-substrate (concentration not stated); varied: cofactor.

Substrate in data set [7]: NC(=O)c1ccc[n+]([C@@H]2O[C@H](COP(=O)(O)OP(=O)(O)OC[C@H]3O[C@@H](n4cnc5c(N)ncnc54)[C@H](O)[C@@H]3O)[C@@H](O)[C@H]2O)c1
Description: purified protein. In kind it is biochemical, Entamoeba histolytica. The note with it: 12.5 mM myo-inositol, 10 mM sodium pyrophosphate pH 9, room temperature; pH 9.0; varied: cofactor.

B1: recombinant 6xHis-tagged E. histolytica myo-inositol dehydrogenase (myo-IDH) (enzyme, Entamoeba histolytica, UniProt C4LVW1 1-316, looked up)
chain: MQSNKVRICLCGTGRLGSFRASLFIESQDIELVGVVEPFRVCQSVLDRPNIKIFKTVEEINIPIDGIWISTPTKFHLQTIKLASKKVKHIYCEKPIASTPEEVKEAYETCRKNGVSLHCGWMRRRDPGYQSIKEYLVSHNVSIQRAEFHSFDWPLVPPEFLKTLGNIFTDLMCHDFNLIMYYMNNTLPKYVTAVGIDGGAGVWDSATASLEYPNNVVLTIIATRNGNKVYDNSLTVLTSDSHILECGKEPENLTETFMKRHEKNFKKELPFFANIIRNNGTSGDVLSCVNTSILIQAATRSATLGGKRIPLVIPKL
notes: myo-inositol dehydrogenase (myo-IDH, EC 1.1.1.18) of Entamoeba histolytica, gene EHI_125740; theoretical weight 36.4 kDa including the 6x-His tag; the natural protein ends in a PTS1 tripeptide; also called putative inositol dehydrogenase; EHI_125740; source: E. coli BL21 Rosetta, pET42b, purified (Ni-NTA agarose, native conditions, imidazole)
On to B1, for which the “stoichiometry N” value in data set [1] is 2 and 3. In addition, the Km worked out at 44 ± 4 µM in the data set “purified protein [2]”; 1201 ± 532 µM in “purified protein [3]”; 322 ± 34 µM in the data set “purified protein [4]”; 229 ± 20 µM in the data set “purified protein [5]”; 9 ± 0 µM in the data set “purified protein [6]”; 38 ± 4 µM in “purified protein [7]”. For the same protein, the Vmax in “purified protein [2]” worked out at 5.45 µmol/min/mg; in “purified protein [3]”, 0.826 µmol/min/mg; in the data set “purified protein [4]”, 4.41 µmol/min/mg; in the data set “purified protein [5]”, 6.2 µmol/min/mg; in “purified protein [6]”, 1.64 µmol/min/mg; in the data set “purified protein [7]”, 1 µmol/min/mg.

The values above are taken from paper PMC8629394, “Anaerobic peroxisomes in Entamoeba histolytica metabolize myo-inositol” (PLoS Pathogens, 2021).
